The record followed here is US20100311648A1 (AstraZeneca / MedImmune, published 2010).

B1: Ac-Arg-cyclo(Glu-Gln-D-Phe(3,4,5-triF)-Arg-Trp-Orn)-NH2 (peptide)
peptide: Ac-REQ[dPhe(3,4,5-F3)]RW[Orn]-NH2
modifications: lactam 2-7
SMILES: CC(=O)N[C@@H](CCCNC(=N)N)C(=O)N[C@H]1CCC(=O)NCCC[C@@H](C(N)=O)NC(=O)[C@H](Cc2c[nH]c3ccccc23)NC(=O)[C@H](CCCNC(=N)N)NC(=O)[C@@H](Cc2cc(F)c(F)c(F)c2)NC(=O)[C@H](CCC(N)=O)NC1=O
B2: Ac-Arg-cyclo(Orn-Gln-D-Phe(2-Me)-Arg-Trp-Glu)-NH2 (peptide)
peptide: Ac-R[Orn]Q[dPhe(2-Me)]RWE-NH2
modifications: lactam 2-7
B3: Ac-Arg-cyclo(Orn-Gln-D-Phe(3,4,5-triF)-Arg-Trp-Glu)-NH2 (peptide)
peptide: Ac-R[Orn]Q[dPhe(3,4,5-F3)]RWE-NH2
modifications: lactam 2-7
B4: Ac-Arg-cyclo(Orn-Asn-D-Phe(3,4,5-triF)-Arg-Trp-Glu)-NH2 (peptide)
peptide: Ac-R[Orn]N[dPhe(3,4,5-F3)]RWE-NH2
modifications: lactam 2-7
B5: Ac-Arg-cyclo(Glu-Arg-D-Phe(3-Cl)-Arg-Trp-Orn)-NH2 (peptide)
peptide: Ac-RER[dPhe(3-Cl)]RW[Orn]-NH2
modifications: lactam 2-7
SMILES: CC(=O)N[C@@H](CCCNC(=N)N)C(=O)N[C@H]1CCC(=O)NCCC[C@@H](C(N)=O)NC(=O)[C@H](Cc2c[nH]c3ccccc23)NC(=O)[C@H](CCCNC(=N)N)NC(=O)[C@@H](Cc2cccc(Cl)c2)NC(=O)[C@H](CCCNC(=N)N)NC1=O
notes: also called No. 99
B6: Ac-Arg-cyclo(Glu-Asn-D-Phe(2-CF3)-Arg-Trp-Orn)-NH2 (peptide)
peptide: Ac-REN[dPhe(2-CF3)]RW[Orn]-NH2
modifications: lactam 2-7
notes: also called No. 116
B7: Ac-Arg-cyclo(Glu-Pro-D-Phe(2-Cl)-Arg-Trp-Orn)-NH2 (peptide)
peptide: Ac-REP[dPhe(2-Cl)]RW[Orn]-NH2
modifications: lactam 2-7
SMILES: CC(=O)N[C@@H](CCCNC(=N)N)C(=O)N[C@H]1CCC(=O)NCCC[C@@H](C(N)=O)NC(=O)[C@H](Cc2c[nH]c3ccccc23)NC(=O)[C@H](CCCNC(=N)N)NC(=O)[C@@H](Cc2ccccc2Cl)NC(=O)[C@@H]2CCCN2C1=O
notes: also called No. 88
B8: Ac-Arg-cyclo(Glu-Thr-D-Phe(2-Cl)-Arg-Trp-Orn)-NH2 (peptide)
peptide: Ac-RET[dPhe(2-Cl)]RW[Orn]-NH2
modifications: lactam 2-7
SMILES: CC(=O)N[C@@H](CCCNC(=N)N)C(=O)N[C@H]1CCC(=O)NCCC[C@@H](C(N)=O)NC(=O)[C@H](Cc2c[nH]c3ccccc23)NC(=O)[C@H](CCCNC(=N)N)NC(=O)[C@@H](Cc2ccccc2Cl)NC(=O)[C@H]([C@@H](C)O)NC1=O
notes: also called No. 32
B9: Ac-Arg-cyclo(Glu-Lys-D-Phe(3-Cl)-Arg-Trp-Orn)-NH2 (peptide)
peptide: Ac-REK[dPhe(3-Cl)]RW[Orn]-NH2
modifications: lactam 2-7
SMILES: CC(=O)N[C@@H](CCCNC(=N)N)C(=O)N[C@H]1CCC(=O)NCCC[C@@H](C(N)=O)NC(=O)[C@H](Cc2c[nH]c3ccccc23)NC(=O)[C@H](CCCNC(=N)N)NC(=O)[C@@H](Cc2cccc(Cl)c2)NC(=O)[C@H](CCCCN)NC1=O
notes: also called No. 100
B10: Ac-Arg-cyclo(Glu-Ser-D-Phe(3-Cl)-Arg-Trp-Orn)-NH2 (peptide)
peptide: Ac-RES[dPhe(3-Cl)]RW[Orn]-NH2
modifications: lactam 2-7
notes: also called No. 35
B11: Ac-Arg-cyclo(Glu-Asn-D-Phe(4-CN)-Arg-Trp-Orn)-OH (peptide)
peptide: Ac-REN[dPhe(4-CN)]RW[Orn]-OH
modifications: lactam 2-7
notes: also called No. 85
B12: Ac-Arg-cyclo(Glu-Asn-D-Phe(3,5-diF)-Arg-Trp-Orn)-NH2 (peptide)
peptide: Ac-REN[dPhe(3,5-F2)]RW[Orn]-NH2
modifications: lactam 2-7
notes: also called No. 76
B13: Ac-Arg-cyclo(Glu-Asn-D-Phe(2-Me)-Arg-Trp-Orn)-NH2 (peptide)
peptide: Ac-REN[dPhe(2-Me)]RW[Orn]-NH2
modifications: lactam 2-7
notes: also called No. 73
B14: Ac-Arg-cyclo(Glu-Glu-D-Phe(4-CN)-Arg-Trp-Orn)-OH (peptide)
peptide: Ac-REE[dPhe(4-CN)]RW[Orn]-OH
modifications: lactam 2-7
B15: Ac-Arg-cyclo(Glu-Asn-D-Phe(3,4,5-triF)-Arg-Trp-Orn)-NH2 (peptide)
peptide: Ac-REN[dPhe(3,4,5-F3)]RW[Orn]-NH2
modifications: lactam 2-7
notes: also called No. 95

Positions of bridges follow the written chain, without caps; N, C: chain ends. Non-standard residues stand in square brackets, D forms with d. dPhe(3,4,5-F3) = N[C@H](Cc1cc(F)c(F)c(F)c1)C(=O)O; dPhe(2-CF3) = N[C@H](Cc1ccccc1C(F)(F)F)C(=O)O; dPhe(3,5-F2) = N[C@H](Cc1cc(F)cc(F)c1)C(=O)O; dPhe(4-CN) = N#Cc1ccc(C[C@@H](N)C(=O)O)cc1; dPhe(3-Cl) = N[C@H](Cc1cccc(Cl)c1)C(=O)O; dPhe(2-Cl) = N[C@H](Cc1ccccc1Cl)C(=O)O; dPhe(2-Me) = Cc1ccccc1C[C@@H](N)C(=O)O; Orn = NCCC[C@H](N)C(=O)O

The target in the first assay is T1, human melanocortin-4 receptor (human, UniProt P32245 1-332). The assay can be described thus: cell-based or functional assay.
T1 sequence (P32245 whole entry): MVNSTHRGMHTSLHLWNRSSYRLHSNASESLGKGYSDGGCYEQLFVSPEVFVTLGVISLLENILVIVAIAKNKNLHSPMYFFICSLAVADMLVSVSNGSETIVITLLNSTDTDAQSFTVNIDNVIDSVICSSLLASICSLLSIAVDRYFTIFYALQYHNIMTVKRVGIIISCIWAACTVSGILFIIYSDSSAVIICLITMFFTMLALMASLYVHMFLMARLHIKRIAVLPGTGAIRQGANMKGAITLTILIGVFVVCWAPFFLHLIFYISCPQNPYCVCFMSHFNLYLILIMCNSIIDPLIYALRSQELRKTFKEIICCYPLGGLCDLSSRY
On to B1, for which the “EC50, cAMP, 0.1 ng/mL Doxycycline” value came out at 0.8 nM; the “EC50, cAMP, 10 ng/mL Doxycycline” value was determined as 0.1 nM; the “Intrinsic Activity, cAMP, 0.1 ng/mL Doxycycline” value came to 49%; the “Intrinsic Activity, cAMP, 10 ng/mL Doxycycline” value amounted to 100%.

B2: the “EC50, cAMP, 0.1 ng/mL Doxycycline” value worked out at 0.575 nM; the “EC50, cAMP, 10 ng/mL Doxycycline” value was 0.053 nM; the “Intrinsic Activity, cAMP, 0.1 ng/mL Doxycycline” value was found to be 81%; the “Intrinsic Activity, cAMP, 10 ng/mL Doxycycline” value stood at 104%.

For the molecule B3, the “EC50, cAMP, 0.1 ng/mL Doxycycline” value was found to be 0.45 nM; the “EC50, cAMP, 10 ng/mL Doxycycline” value was 0.14 nM; the “Intrinsic Activity, cAMP, 0.1 ng/mL Doxycycline” value is 47%; the “Intrinsic Activity, cAMP, 10 ng/mL Doxycycline” value came to 100%.

Turning to B4, the “EC50, cAMP, 10 ng/mL Doxycycline” value was found to be 0.235 nM; the “Intrinsic Activity, cAMP, 0.1 ng/mL Doxycycline” value turned out to be 24%; the “Intrinsic Activity, cAMP, 10 ng/mL Doxycycline” value is 100%.

For the molecule B5, the “EC50, cAMP, 10 ng/mL Doxycycline” value is 0.14 nM; the “Intrinsic Activity, cAMP, 0.1 ng/mL Doxycycline” value was 32%; the “Intrinsic Activity, cAMP, 10 ng/mL Doxycycline” value was 94%.

Consider B6, for which the “EC50, cAMP, 0.1 ng/mL Doxycycline” value came out at 0.68 nM; the “EC50, cAMP, 10 ng/mL Doxycycline” value came out at 0.095 nM; the “Intrinsic Activity, cAMP, 0.1 ng/mL Doxycycline” value came out at 77%; the “Intrinsic Activity, cAMP, 10 ng/mL Doxycycline” value was found to be 104%.

Consider B7, for which the “EC50, cAMP, 10 ng/mL Doxycycline” value amounted to 0.35 nM; the “Intrinsic Activity, cAMP, 0.1 ng/mL Doxycycline” value was found to be 15%; the “Intrinsic Activity, cAMP, 10 ng/mL Doxycycline” value came out at 89%.

For the molecule B8, the “EC50, cAMP, 0.1 ng/mL Doxycycline” value is 18 nM; the “EC50, cAMP, 10 ng/mL Doxycycline” value stood at 0.543 nM; the “Intrinsic Activity, cAMP, 0.1 ng/mL Doxycycline” value was found to be 34%; the “Intrinsic Activity, cAMP, 10 ng/mL Doxycycline” value amounted to 96%.

As to B9, the “EC50, cAMP, 0.1 ng/mL Doxycycline” value came to 6 nM; the “EC50, cAMP, 10 ng/mL Doxycycline” value was 0.27 nM; the “Intrinsic Activity, cAMP, 0.1 ng/mL Doxycycline” value is 27%; the “Intrinsic Activity, cAMP, 10 ng/mL Doxycycline” value came out at 93%.

As to B10, the “EC50, cAMP, 10 ng/mL Doxycycline” value is 1 nM; the “Intrinsic Activity, cAMP, 0.1 ng/mL Doxycycline” value was 6%; the “Intrinsic Activity, cAMP, 10 ng/mL Doxycycline” value is 84%.

For B11, the “EC50, cAMP, 0.1 ng/mL Doxycycline” value turned out to be 15 nM; the “EC50, cAMP, 10 ng/mL Doxycycline” value is 0.707 nM; the “Intrinsic Activity, cAMP, 0.1 ng/mL Doxycycline” value amounted to 36%; the “Intrinsic Activity, cAMP, 10 ng/mL Doxycycline” value turned out to be 94%.

For B12, the “EC50, cAMP, 0.1 ng/mL Doxycycline” value is 3 nM; the “EC50, cAMP, 10 ng/mL Doxycycline” value turned out to be 0.135 nM; the “Intrinsic Activity, cAMP, 0.1 ng/mL Doxycycline” value was 53%; the “Intrinsic Activity, cAMP, 10 ng/mL Doxycycline” value amounted to 85%.

For B13, the “EC50, cAMP, 0.1 ng/mL Doxycycline” value worked out at 0.587 nM; the “EC50, cAMP, 10 ng/mL Doxycycline” value was 0.068 nM; the “Intrinsic Activity, cAMP, 0.1 ng/mL Doxycycline” value came out at 86%; the “Intrinsic Activity, cAMP, 10 ng/mL Doxycycline” value worked out at 102%.

For B14, the “EC50, cAMP, 10 ng/mL Doxycycline” value worked out at 269 nM; the “Intrinsic Activity, cAMP, 0.1 ng/mL Doxycycline” value is 2%; the “Intrinsic Activity, cAMP, 10 ng/mL Doxycycline” value turned out to be 69%.

As to B15, the “EC50, cAMP, 0.1 ng/mL Doxycycline” value came to 1 nM; the “EC50, cAMP, 10 ng/mL Doxycycline” value was found to be 0.125 nM; the “Intrinsic Activity, cAMP, 0.1 ng/mL Doxycycline” value was 42%; the “Intrinsic Activity, cAMP, 10 ng/mL Doxycycline” value turned out to be 100%.

The next assay has as its target T1, human melanocortin-4 receptor. The assay can be described thus: [I125]-NDP-α-MSH competition, hMC4-R HEK-293 membranes. Here is the method:
A competitive inhibition binding assay was performed for exemplified peptides according to the invention using membrane homogenates prepared from HEK-293 cells that express recombinant hMC4-R, hMC3-R, or hMC5-R, and from B-16 mouse melanoma cells (containing endogenous MC1-R). In some instances, HEK-293 cells that express recombinant hMC1-R were employed. Assays were performed in 96 well GF/B Millipore multiscreen filtration plates (MAFB NOB10) pre-coated with 0.5% bovine serum albumin (Fraction V). […] After incubation for 60 minutes at 37° C., the assay mixture was filtered and the membranes washed three times with ice-cold buffer. Filters were dried and counted in a gamma counter for bound radioactivity. […] Each assay was conducted in triplicate and the actual mean values are described, with results less than 0% reported as 0%. Ki values for test peptides of the present invention were determined using Graph-Pad Prism® curve-fitting software.
As a reminder, the Ki is the dissociation constant of the complex between target and ligand, obtained from inhibition or displacement. Higher therefore signals lower affinity. With B5, the Ki is 0.5 nM.

Regarding B6, the Ki was found to be 7 nM.

Take B7: the affinity, expressed as Ki, was 5 nM.

The molecule B8 gave a Ki of 11 nM.

B9 registered a Ki of 4 nM.

In the case of B10, the affinity, expressed as Ki, was 10 nM.

Regarding B11, the Ki worked out at 64 nM.

B12 yielded a Ki of 20 nM.

B13: the Ki was 4 nM.

In turn, B14 came in with a Ki of 1090 nM.

Molecule B15 gave a Ki of 3 nM.
